According to US20230357364A1:

Tests used:
[1] = molecular target: SARS-CoV-1 spike on pseudovirus (SARS-CoV-1) (UniProt P59594); assay: cell-based or functional assay
[2] = molecular target: SARS-CoV-2 spike on pseudovirus or live virus (USA-WA1/2020, WT) (SARS-CoV-2) (UniProt P0DTC2); assay: cell-based or functional assay

Substance | PSV in HeLa-ACE2 cells IC50 [1] [ng/mL] | PSV in HeLa-ACE2 cells IC50 [2] [ng/mL] | live virus IC50 (HeLa-ACE2) [2] [ng/mL] | live virus IC50 (Vero) [2] [ng/mL]
REGN10933 (antibody) | > 25000 | 6 | 2 | 1
REGN10987 (antibody) | > 25000 | 93 | 5 | 1
